In the nanobody polyreactivity screen of Harvey et al. (2022):

Experiment: yeast display, Sf9 membrane polyspecificity reagent, FACS + sequencing; frameworks hold sequencing errors
Outline: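 Nanobodies from a synthetic yeast display library (Saccharomyces cerevisiae BJ5465), induced 36–48 hours with galactose, were stained 1 hour at 4 °C with 10% biotinylated, detergent-solubilized Sf9 membrane reagent, enriched on streptavidin microbeads, then FACS-sorted. Anti-HA (expression) and streptavidin (reagent binding) fluorescence set low and high (top ~1%) gates. Polyreactivity labels come from the gate of origin. Genes were colony-PCR amplified, MiSeq 2 × 250 sequenced and filtered by CDR length.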

Sequence | polyreactivity (PSR sort gate)
QVQLVESGGGLVQAGGSLRLSCAASGFTFKYNVMGWYIQAPGKERELVAAISSAGNTNYADSVKGRFTISRDNAKNTVYLQMNSLKPEDTAVYFCAKRRDTLYVGVEGYYWGQGTQVTVSS | high polyreactivity
QVQLVESGGGLVQAGGSLRLSCAASGLTFRAYTMGWYRQAPGKERELVAAISRSGGSTYYADSVKGRFTISRDNAKNTVYLQMNSLKPEDTAVYYCAAPGYQTVGMGYWGQGTQVTVSS | high polyreactivity
QVQLVESGGGLVQAGGSLRLSCAASGFTFRVNAMGWYRQAPGKERELVAVISHSGGSTYYADSVKGRFTISRDNAKNTVYLQMNSLKPEDTAVYYCAKDRVVLYKYYRVDYWGQGTQVTVSS | low polyreactivity
QVQLVESGGGLVQAVGSHRLSSAASGFTFRWYTMGWYRQAPGKERELVASIRYGGGSTYYADSVKGRFTISRDNAKNTVYLQMNCLKPEDTAVYYCAAESAWTSPYDYWGQGTQVTVSS | high polyreactivity
QVQHVESGGGLVQAGGSLRLSCAASGSTFRFYDMGWYRQSPGKERELVATISSSGGTTYYADSVKGRFTISRDNAKNTVYLQMNSLKPEDTAVYYCNKYYGGRYRQYAYGYWGQGTQVTVSS | high polyreactivity
QVQLVESGGGLVQAGGSLRLSCAASGLTIFVNAMGWYRQAPGKERELVATISGGGSTYYADSVKGRFTISRDNAKNTVYLQMNSLKPEDTAVYYCNADVLFYTYYTRGRFDFDYWGQGTQVTVSS | low polyreactivity
QVQLVESGGGLVQAGGSLRLSCAASGRTLGGNAMGWYRQAPGQERELVAAITNSASTYADSVKGRFTISRDNAKNTVYIQMNSLKPEDTAVYYCTAPDPSDQNGDYWGQGTQVTVSS | low polyreactivity
QVQLVESGGGLVQAGGSLRLSCAASGRTFPFNAMGWYRQAPGKERELVAGISSGGRTNYADSVKGRFTISRDNAKNTVYLQMNSMQPEDTAVYYCAARYQPSRAARWTLDYWGQGTQVTVSS | high polyreactivity
QVQLVESVGGLVQAGGSLRLSCAASGFIFWDNAMGWYRQAPGKERELVAAISKSGTRTYYADSVKGRFTISRDNAKNTVYLQMNSLKPEDTAVYSCAAEGSGYEYYYWGQGTQVTVSS | high polyreactivity
QVQLVESGGGLVQAGGSLRLSCAASGSTLAKYAMGWYRQAPGKERELVAAISWSGGRTYYADSVKGRFTISRDNAKNTVYLQMNSLKPEDTAVYYCAARARSSRTYHDDYWGQGTQVTVSS | high polyreactivity
QVQLVESVGGLVQAGGSLRLSCAASGSIFEQNAMGWYRQAPGKERELVAGINEGGGSTYYADSVKGRFTISRDNAKNTVYLQMNSLKPEDTAVYYCAAEYYDDFSYGWYDYWGQGTQVTVSS | high polyreactivity
QVQLVESGGGLVQAGGSLRLSCAASGRTFIWYVMGWYRQAPGKERELVASISTNGGNTYYADSVKGRFTISRDNAKNTVYLQMNSLKPEDTAVFYCAVDGVDAYYIAYYYWGQGTQVTVSS | high polyreactivity
QVQLVESGGGLVQAGGSLRLSCAASGFTFRYYVMGWYRQAPGKERELVATITWGGGSTYYADSVKGRFTISRDNAKNTVYLQMNSLKPEDPAVYYCAASLKWGRGVLARVLWYNYWGQGTQVTVSS | low polyreactivity
QVQLEESGGGLVQAGGSLRLSCAATASIFDYYAMGWYRQAPGKERELVAAISGTGGSTYYADSVMGRFTISRDNAKNTVYLQMNSLKPEDTAVYYCNAARVIRTALRNDGTFDYWGQGTQVTVSS | high polyreactivity
QVQLVESGGGLVQAGGSLRLSCADSGSIFGVNVMGWYRQAPGKDRELVAAITSIGGRTYYADSVKGRFTISRDNAKNTVYLQMNSLKPEDTAVYYCNADYTGAEYDYWGQGTQVTVSS | low polyreactivity
QVQLVESGGGLVQAGGSHRLSCAASGGTFSNNAMGWYRQAPGKERELVAAISNSGGRTYYADSVKGRFTISRDNAKNTVYLQMNSLKPEDTAVYYCNARYRLMDYWGQGTQVTVSL | high polyreactivity
QVQLVESGGGLVQAGGSLRLSCAASGRTFFFYAMGWYRQAPGKERELVAGITSRGTRTYYADSVKGRFTISRDNAKNTVYLQMNSLKPEDTAVYYCATDDCRDWLNYWGQGTQVTVSS | low polyreactivity
QDQLVESGGVLVQAGGSLRLSCAASGSIFFRNAMGWYRQAPGKERELVAGIRWSGGSTYYADSVKARFTISRDNAKNTVYLQMNSLKPEDSAVYYCAASRYRPARVQYSYDYWGQGTQVTVSS | high polyreactivity
QVQLVESGGGLVQAGGSLRLSCAASGFTFYHYAMGWYRQAPGTERELVASITRSGASTYYADSVKGRFTSSRDNAKNTVYLQMNSLKPEDTAVYYCNKVRYTSSIWTYYYWGQGTQVTVSS | high polyreactivity
QVQLVESGGCLVQAGGSLRLSGAASGRTQVPYAMGWSRQAHGNERELVASISSGGSTNYADSVKGRFTISRDNAKNTVYLQMNSLKPEDTAVYYCNAEPIGSEVDYWGQGTQVTVAS | low polyreactivity
QVQLVESGGGLVQAGGSLRLSCAASGSIFYFYAMGGYRQAPGKERELVAAIRSSDGITYYADSVKGRFTISRDNAKNTVYLQMNSLKPEDTAVYYCAALVRDFYNWDTLYYWGQGTQVTVSS | low polyreactivity

Sequence | polyreactivity (PSR sort gate)
QVQLVESGGGLVQAGGCLRLSCAASGFTFKTYAMGWYRQAPGKEREFVAAITTRVGSTYYADSVKGRFSISRDNAKNTVYLQMISLKPEDTAVYYCNYNFNYPYYRYGYWGQGTQVTVSS | high polyreactivity
QVQLVESGGGLVQAGGSLRLSCAASGFIFNYYLGWYRQAPGKEREWVAAISQSGDSTYYADSVKGRFTISRDNAKNTVYLQMNSQKPEDTAVYYCAAETSPDYRGVTYYYWGQGTQVTLSS | high polyreactivity
QVQLVESGGGLVQAGGSLRLSCAASGTIFTINAMGWYRQAAGKERELVAAISWSGAHTYYADSVKGRFTISRDNAKNTVFLQMNSLKPEDTAVYYCATGYNYLERNTGYFHRFDYWGQGTQVTVSS | low polyreactivity
QVLLVETGGGLVQAGGSLRLSCAASGLIFYDNMGWYRQAPGKERELVAAISSSGGSTSYADSVKGRFTISRDNAKNTVYLQMNSLKPEDTAVYYCAADSYPAYLGFVGFDYWGQGTQVTVSS | low polyreactivity
QVQLVESGGGLVQAGGSLRLSCAAYGRTIRVYAMVWYRQAPGKERELVAAITSGDSTYYADSVKGRFTISRDNAKNTVYLQMNSLKPEDTAVYYCAVNTRRYWYGYWGQGTQVTVSS | high polyreactivity
QVQLVESGGGLVQAGGSLRLSCAASGSIFPSNAMGWYRQAPGKERELVAAISWSGDITYYADSVKGRFTISRDNAKNTVYLQLNSLKPEDTAVYYCAADTPIAGYWYNYWGQGTQVTVSS | low polyreactivity
QVQLVESRGGLVQAGGSLRLSCAASGSTLYQYAMGWYRQAPGKERELVAAITKSGGRTYYADSVKGRFTISRDNAKNTVYLHMNSLKPEDTAVYYCNVVRGSYSSGGDYWGQGTQVTVSS | high polyreactivity
QVQLVESGGGLVQAGGSLRLSSAASGRTFRYYAMRWYRQAPAKERELVAAINRGGSTYYGDSVKGRFTISRDNAKNTVYLQMNSLKPVDTAVYYCNVDKYRIVGFHTPYDYWGQGTQVTVSS | high polyreactivity
QVQLVESGGGLVQAGGSLRLSCAASGIFRYYAMGWYRQAPGKERELVATITRSSGSTYYADSVKGRFTISRDNAKNTVYLQMNSLKPEDTAVYYCAARGPYFNRGTRYDYWGQGTQVTVSS | high polyreactivity
QVQLVESGGGLDQAGGSLRLSCAASGRTFYYNAMGWYRQAPGKERELVADINWSGVRTYYADSVKGRFTISRDNAKNTVYLQMNSLKPEDTAVYYCAARYRTLTKYYWGQGTQVTVSS | low polyreactivity
QVQLVESGGGLVQAGGSLRLSCADSGSIFSPYAMGWYRQAPGKERELVAAITNSGGRTYYADSVKGRFTISRDNAKNTVYLQMNSLKPEDTAVYYCNADYGKHHPDYYYWGQGTQVTVSS | low polyreactivity
QVQLVESGGGLVQAGGSLRLSCAASGSIFLFYTMGWYRQAPGKERELVASSSGGGTHYADSVKGRFTISRDNAKNTVYLQMNSLKPEDTAVYYCATPNKNGQNLGGVWEAYDYWGQGTQVTVSS | low polyreactivity
QVQLVESGGGLVQAGGSLRLSCAASGRIFKWYAMGWYRQAPGKERELVAAITSGGGSTYYADSVKGRFTISRDNAKNTVYLQMNSLKPEDTAVYYCAVKGYRRWGYDYWGQGTQVTVSS | high polyreactivity
QVQLVESGGGLVQAGGSLRLSCAASGITFYYYTMGWYRQAPGKERELVAAITSRGGNTYYADSVKGRFTISRDYAKNTVYLQMNSLKPEDTAVYFCAASRFSSRGYGYWGQGTQVTVCS | high polyreactivity
QVQLVESGGGLVQAGGSLRLSCAACGSIFLKYVMGWYRQAPGKERELVAAISFRSGSTYYADSVKGRFTISRDNAKNTVYVQMNSLKPEDTAVYYCAASWTPRYLGFDHWGQGSQVTVSS | high polyreactivity
QVQLVESGGCLVQAGGSLRLSCAASGRTFYINTMGWYRQAPGKEREFVAAIRFSSDSTYYADSVKGRYTISRDNAKNTVYLQMNSLKPEDTAVYYCATRTYAQRYGYWGQGTQVTVSS | high polyreactivity
QVQLVESGGGLVQAGGSLRLSCAASGSTFSGYAMGWYRQAPGKERELVAAISRRGTSTYYADSVKGRFTISRDNAKNTVYLQMNSLKPEDTAVYYCAARPSGYVIGGYGYWGQGTQVTVSS | high polyreactivity
QVQLVESGGGLDQAGGSLRLSCAPSGSIFKRNAMGWYRQAPGKARELVAAISKSSGSTYYADSVKGRFTISRDNAKNTVYLQMNSLKPEDYAVYYCAAKYYSYVDKYYYWGQGTQVTVSS | high polyreactivity
QVQLVESGGGLVQAGGSLRLSCAASGSTFGHYAMGRYRQAPGKESELVSAISTSGGRTYYADSVKGRFTISRDNAKNTVYLQMNSLKPEDTAVYYCATRRYGVDKFDYWGQGTQVTVSS | high polyreactivity
QVQLVESGGGLVQAGGSLRLISPASRFTFRYYAMGWYRQAPGKERELVAAISRGGTTNYADSVKGRFTISRDNAKNTVYLQMNSLKPEDTAVYYCATTRYDYWGQGTQVTVSS | high polyreactivity
